Test: yeast display, Sf9 membrane polyspecificity reagent, FACS + sequencing; frameworks hold sequencing errors
How it was run: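 Galactose-induced (36–48 hours) yeast carrying a synthetic nanobody display library were exposed to 10% biotinylated, detergent-solubilized Sf9 membrane reagent at 4 °C for 1 hour. FACS followed streptavidin microbead enrichment, using low and high (top ~1%) gates for expression (anti-HA) and reagent binding (streptavidin). Colony PCR, MiSeq 2 × 250 sequencing and CDR-length filtering followed. Labels for polyreactivity reflect the gate of origin.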

Sequence | polyreactivity (PSR sort gate)
QVQLVESGGGLVQAGGSLRLSCSASGFIYPNNAMGWYRQAPGKERELVARISYGGGDTHYADSVKGRFTISRDNAKNTVYLQMNSLKPEDTAVYYCAVKDGQDDYWGQGTQVTVSS | low polyreactivity
QVQLVESGGGLVQAGGSLRLSCSASGFTFWVNAMGWYRQAPGKERELVAAISRRGGRTYYADSVKGRYTISRDNAKNTVYLQMNSLKPEDTAVYYCNKEDVGCSESDYWGQGTQVTVSS | high polyreactivity
QVQLVESGGGLVQAGGSLRLSCSASGFTFYYAMGWYRQAPGKERELVAAITSSGTTYYADSVKGRFTISRDNAKNTVYLQMHSLKPEDTAVYYCNAVRWSKYAFYDYWGQGTQVTVSS | high polyreactivity
QVQLVESGGGLVQAGGSLRLSCSASGIIFGWYAMGWYRKAPGKEREFVATISWSGASTYYADSVKGRFTISRDNAKNTVYLQLNSLKPEDTAVYYCAAVGRRQAFGRRDYWGQGKQVTVSS | high polyreactivity
QVQLVESGGGLVQAGGSLRLSCSASGIIFIYYGMGWYRKAPGKERELVAAISRSGGRTYYADSVKGRFTISRDNANNTVYFHMNSLKPEDTAVYYCANTYTQTGFDYWGQGTQVTVSS | high polyreactivity
QVQLVESGGGLVQAGGSLRLSCSASGIIFIYYGMGWYRKAPGTERELVAAISRSGGRTYYADSVKGRFTISRDNANNIVYLQMNSLKPEDTAVYYCATTYTPTGFDYWGQGTQVTVSS | high polyreactivity
QVQLVESGGGLVQAGGSLRLSCSASGIIFKYYAMGWYRQAPVKERELVAAISRSSGSTYYADSVKGRFTISRDNAKNTVYLQMNSLKPEDTAVYYCAASGWQQKLDYWVQGTQVTVSS | high polyreactivity
QVQLVESGGGLVQAGGSLRLSCSASGITFGRNTKGWYRQAPGKERELVAASDSGGNTYADSVKGRFTISRDNAKNTVYLQMNSLKPEDTAVYYCAVDGGEFSSYGYWGQGTQVTVSS | low polyreactivity
QVQLVESGGGLVQAGGSLRLSCSASGLIFPSNTMGWYRQAPGTERELVAAITFSGDSTNYADSVKGRFTISRDNAKNTVYVQMNSLKPEDTAVYYCAASQVSDTTRFGYWGQGTQVTVSS | low polyreactivity
QVQLVESGGGLVQAGGSLRLSCSASGNIFFGYAMGLYRQAPGKERQFVASITKIGGSTYYADSVKGRFTISRDNAKNTVYLQLNSLKPEDTAVYYCAARLGHSVNPGGERWDVVYWGQGTQVTVSS | low polyreactivity
QVQLVESGGGLVQAGGSLRLSCSASGRIFHRYTMGWYRQSPGKEREFVAAITTRAGSTYYADSVKGRFTISRDNAKYTVFLQMNSLKPEDTAVYYCNIRRHSMFGGTTTRYDFWGQGTQVTVSS | high polyreactivity
QVQLVESGGGLVQAGGSLRLSCSASGRIFSGYAMGWYRQAPGKERELVAAITSVGSTNYADSVKGRFTISRDNAKNTVYLQMNSLKTEDTAVYYCAARSQIYYRYRSYGYWGQGTQVTVSS | high polyreactivity
QVQLVESGGGLVQAGGSLRLSCSASGRIFVIYDMGWYRQAPGKEWEFVAAISWRTGSTYYADSVKGRFTISRDNAKNTVYLQMNSLKPEDTAVYYCAASIGLVHYDYWGQGTQVTVSS | low polyreactivity
QVQLVESGGGLVQAGGSLRLSCSASGRNFWFYAKGWYRQAPGKERELVAAISSGGSTNYADSVKGRFTISRDNAKNTVYLQMNSLKPEDTAVYYCAKVGNIPYGTRYYSNRYDYWGQGTLVTVSS | low polyreactivity
QVQLVESGGGLVQAGGSLRLSCSASGRTFGAYAMGWSRQAPGKERELVASISRSGGTTYYADSVKGRFTISRDNAKNTVYLQMNSLKPEDTAVYYCAAQYVRYGHYYWGQGTQVTVSS | high polyreactivity
QVQLVESGGGLVQAGGSLRLSCSASGSIFGRKMGWYRQAPVKERELVAAITWSGGRTYYADSVKGRFTISRDNAKNTVYLLMNCLKPEDTAVYYCNAVRRYTGYAFKDDYWGQGNQVTVSS | high polyreactivity
QVQLVESGGGLVQAGGSLRLSCSASGSIFGVYTMGWFRQAPGKERELVAAITSAGSTYADSVKGRFTISRDNAKNTVYLQMNSLKPEDTAVYYCNAESVLLSVLVELREPHEYWGQGTQVTVSS | low polyreactivity
QVQLVESGGGLVQAGGSLRLSCSASGSIFNYYTMGWDRQAPGKERELVAVITWSDDSTYYADSVKGRFTISRDNAKNTVYLQMNSLKPEDTAVYYCNARSWGWYRIAYGYWGQGTQVTVSS | low polyreactivity
QVQLVESGGGLVQAGGSLRLSCSASGSIFPKNAMGWYRQAPGKERELVARISGSGGSTYYADSVKGRFTISRDNAKNTVYLQMNSLKPEDTAVYYCAKDQSKIYSSWSGYYYWGQGTQVTVSS | low polyreactivity
QVQLVESGGGLVQAGGSLRLSCSASGSNFGYYAMGWYRQAPGKERELVASITWTGGSTYYADSVKGRFTISRDNAKNTVYLQMNSLKPEDTAVYYCAAQLEPSYWFWTGYGYWGQGTQVTVSS | high polyreactivity
QVQLVESGGGLVQAGGSLRLSCSASGSTFGYNAMGWYRQAPGKERELVAAILFSGGSTFYADSVKGRFTISRDNAKNTVYLQMNSLKQEDTAVYYCADYAGYYAYDSWGQGTQVTVSS | low polyreactivity
QVQLVESGGGLVQAGGSLRLSCSASGSTFTYYAIGWYRTAPGEERELGAAISWRGTSTYYADSVKGRFTISRDNAKNSVYLQMNSLKTEETAVYSCAGRGLWPYDYWGQGTQVTVSS | low polyreactivity

Sequence | polyreactivity (PSR sort gate)
QVQLVESGGGLVQAGGSLRLSCSASGTISGLYAMGWYRQATGKERELVARIRWRGDSTYYADSVKGRFTISRDNAKNTVYLQMNSLNPEDTAVFYCAASAYSGKVNKYNYWGQGTQVTVSS | high polyreactivity
QVQLVESGGGLVQAGGSLRLSCSASGYTFSSYGMGWYRQAPGKERELVAAITGSTGTTYYADSVQGRFTISRDNAKNTVYLQMISLKPEDTAVYYCAAEYQSYPWYDYWGQGTQVTVSS | high polyreactivity
QVQLVESGGGLVQAGGSLRLSCSASRSTFPGYAMGWYRQAPGKERELVAAISVSGDRTYYADSVKRRFTISRDNPQNTVYLQMNRLKPEDTAVYYCAVRTRYRGSGVWVGNYSWGQGTQVTVSS | high polyreactivity
QVQLVESGGGLVQAGGSLRLSCSAYGFIFTGYAMGWYRQAPGKEREFVAAISYSGGSTYADSVKGRFTISRDNAKNSVYLQMNSLKPEDTAVYYCNARQGLWRYTAENDYWGQGTQVTVSS | low polyreactivity
QVQLVESGGGLVQAGGSLRLSCTASGITSGSYAMGWYRQAPGKERELVAAISNSGSTYYADSVKGRFTISRDNAKNSVYLQMNSLKPEDTAVYYCNADDWWGGYDYWGQGTQVTVSS | low polyreactivity
QVQLVESGGGLVQAGGSLRLSCVASGFIFRRNAMGWYRQAPGKERELVATISSGGNTYYADSVKGRFTISRDNAKNTVYLQMNSLKPVDTAVYYCIASDGLPSKLNVYVEFDYWGQCTQVTVSS | low polyreactivity
QVQLVESGGGLVQAGGSLRLSCVASGFTFIRYAMGWYRQAPGKERELVASITRGGSTYYADSVKGRFTISRDNAKYTVYLQMNSLKPEDTAVYYCATTSYYGYDYWGQGTQVTVSS | high polyreactivity
QVQLVESGGGLVQAGGSLRLSCVASGRIFARNAMGWYRQAPGKERELVAAITWSVGSTYYADSVKGRFTISRDNAKNTVYLQMISLKPEDTAVYYCAERYWYSRYWYDYWGQGTQVTVSS | high polyreactivity
QVQLVESGGGLVQAGGSLRLSCVASGRTFSRYAMGWYRQAPGKERELVAAISLRCGRTKYADSVKGRFTISRDNAKNTVYLQMNSLKPEDTAVYYCAADIYYGYPWRYHAGYYEGFDYWGQGTQVTVSS | high polyreactivity
QVQLVESGGGLVQAGGSLRLSFAASGGTFYTYVMGWYRQAPGKERELVAAISGSGGSTYYADSVKGRFTISRDNAKNTVYLQMNSLKPEDTAVYYCAAEGFVTWYRQGQVYYWGQGTQVTVSS | high polyreactivity
QVQLVESGGGLVQAGGSLRLSFAASGIIFDINAMGWYRQAPGKERELVAAITTSVDSTYYADSVKGRFTISRDNAKNTVYLQMNSLKPEDTAVYYCAAGPGDSGDDYWGQGTQVTVSS | low polyreactivity
QVQLVESGGGLVQAGGSLRLSFAASGIIFRYSAMGWYRQEPGKERELVAAISRSGARTYYADSVKGRFTISRDNAKNTVYLQMNSLKPEDTAVYYCATDPTSGRFYYWGQGTQVTVSS | high polyreactivity
QVQLVESGGGLVQAGGSLRLSFAASGLIIFSYAMGWYRHAPGKEREIVASIRSSGGSTNYADSVKGRFTISRDNAKNTVYLQMYSLKPEDTAVYYCATRSKTSGRSYIPFNYWGQGTQVTVSS | high polyreactivity
QVQLVESGGGLVQAGGSLRLSFAASGLTFYTNAMGWYRQAPGKETELVATITSGGRTSYADSVKGRFTISRDNAKNTVYLEMNRLKPEDTAVYYCADTTGWYGARYGYWGQGTQVTVSS | high polyreactivity
QVQLVESGGGLVQAGGSLRLSFAASGRTFNTYTMGWYRQAPGKERELVAAITGTGGSTFYADSVKGRFTISRDNAKNTVYLQMNSLKPEDTAVYYCNADLEVTIGVYTDGFDSDYWGQGTQVTVSS | low polyreactivity
QVQLVESGGGLVQAGGSLRLSFAASGSIFGFNAMGWYRPAPGKERELVAAISSGGITNYADSVKGRFTISRDNAKNTVYLQMNSLKAEDTAVYYCAARAVSEDYYEFDYWGQGTQVTVSS | low polyreactivity
QVQLVESGGGLVQAGGSLRLSFAASGSILYIYAMGWYRQAPGKERELVASISRSGGRTYDADSVNGRFTISRDNAKNTVYLQMNSLKPEDTAVYYCDAVTGGGSKMDYWGQGTQVTVSS | high polyreactivity
QVQLVESGGGLVQAGGSLRLSFAASGSTFDNYAMGWYRQAPGKERELVAAIRRGGSTYYADSVKGRFTISRDNAKNTVYLQMNSLKPEDTAVYYCNAPITRFEGYFYWGQGTQVTVSS | high polyreactivity
QVQLVESGGGLVQAGGSLRLSFAASGSTFTYNDMGWYRQAPGKERELVARITFSSGRTYYADSVKGRFTISRDNAKNTVYLQMNSLKPEDTAVYYCARQWYWRPGYYIGQGYEYWGQGTQVTVSS | low polyreactivity
QVQLVESGGGLVQAGGSLRLSFPASGFTFFGYAMGWYRQAPGKERELVAAISTIDGDTYYADSVKGRFTISRDNAKNTVYLQMNSLKPEDTAVYYCAADDYIDGDDYWGQGTQVTVSS | low polyreactivity
QVQLVESGGGLVQAGGSLRLSGAASGFIFIHYAMGWYRQAPGKERELVAAIRASGTSTYYADSVKGRFTISRDNAKNTVYLQMNSLKPEDTAVYYCAAQGYLRLRTHFNYWGQGTQVTLSS | low polyreactivity

From the nanobody polyreactivity screen of Harvey et al. (2022)
